# Measurements: the DeepSol protein solubility set
# Test: soluble on expression in E. coli; label from the status in PepcDB or PDB records
row,Sequence,soluble on expression in E. coli
1,MANDPYIQSFTCFDGTRRLLTAALPEVALALKQAVAGGAAGPLLVFDNATGRSVDLDIRGSSEDLLARLVVAGERQPAEEAAPRGRGRPKLGVVAREVTLLPRHWEWLAAQPGGASVALRKLVEEARRSQSGRARQAQERAYHFMNAMAGDLPGFEEATRALFAGDREGFAERIAGWPTDVREHAAWLASDGES,not soluble
2,MGSDKIHHHHHHMAGNTIGQLFRVTTFGESHGLALGCIVDGVPPGIPLTEADLQHDLDRRRPGTSRYTTQRREPDQVKILSGVFEGVTTGTSIGLLIENTDQRSQDYSAIKDVFRPGHADYTYEQKYGLRDYRGGGRSSARETAMRVAAGAIAKKYLAEKFGIEIRGCLTQMGDIPLDIKDWSQVEQNPFFCPDPDKIDALDELMRALKKEGDSIGAKVTVVASGVPAGLGEPVFDRLDADIAHALMSINAVKGVEIGDGFDVVALRGSQNRDEITKDGFQSNHAGGILGGISSGQQIIAHMALKPTSSITVPGRTINRFGEEVEMITKGRHDPCVGIRAVPIAEAMLAIVLMDHLLRQRAQNADVKTDIPRW,not soluble
3,MFMIKVITPETNHPKEGGILSALVSIYNCTIHIRKPRFTADQYKKYLHDHNQLLSHFVLHEHHSLAKEFPVMGVHLKELDRINPAQVHPDIKIISTSIHSIADAGNLSHPFEYIFYSPLFQSISKENYGTNNSLADLKKTVSELKEQTGIPIIGLGGIYEANIDLVKKSGFDGAALLGAVWVQSDPLAAFGRIASMILEHHHHHH,not soluble
4,GPGSMMTTCPQTRCYNCGTFGHSSQICHSKPHCFHCSHSGHRSSECPMRSKGRVCYQCNEPGHEAANCPQGQLCRMCHRPGHFVAHCPEVVCNLCHLKGHTAGVCDNVHCDNCGRNHETVHCHQPYLAPVTHDRVSEERSASLPSEHDPSSADQSNNSATPCDSDDGGSNRGGEPRPRTGVSCAPVVPPYIPLDGPKRDGRVAIVVDGSYFERCVAVRRNRSDPTYYRHITDALLYTIDYIGDIFQCEPFAYWFDTDTAAFREFVETSMPLAHRENAFREASMRKRYLTDEMNSGRSLPNVVAKLVGGMKRQRGFTEDGPGHVWVQTGVDVATATCVIELFQDRRQFRQVVLLCGDADVYPAVQYCNTLRRSSHQHADSNPVRVCGTSDSMSKIYGQQQDLTDFLPRLLLDCPLHTEGGRTIEFPTSKVFMSVR,not soluble
5,MGSDKIHHHHHHMILKTKLFGKVYQFTSVKEVLAKANEEKSGDKLAGVAANSAEERVAAKVVLSELSLNDLFNNPVVDYDEDEVTRIIIDQVNMRIFESIKHWTVAELREFILSSETTDFDIKRISRGLTSEMIAAVCKLMSNMDLIVGAKKINIEKTANTTIGRPGTFSNRLQPNHPTDNVDGIMASVMEGLSYGAGDALIGLNPVDDSTESVKRILNKFEEFRSEWEIPTQTCVLAHVTTQMEAMRQGAPTGLVFQSIAGSEKGNTAFGLNAEILAEAQDLALHSGQAAGPNVMYFETGQGSELSSEANFGADQVTMEARCYGLAKKFDPYIVNTVVGFIGPEYLYDSKQVIRAGLEDHFMGKLTGISMGCDVCYTNHMKADQNDMENLAMLLATAGCTYIMGIPHGDDVMLNYQTTGFHETATIRETLGLRPIKEFEEWMEKMGLMENGKLTSRAGDASVFIK,not soluble
6,SLIKEQASKLIKEIVNQISSLASISNFVLLFPRLDFKGLGYIPQLFFIFVKHDLIEENLSSVSSARAVIDFTNTKSEYVNFNITPRPEIVTINKGILSSIYDQTLIRALRETPFMNSALEFNSNFIKMQFRQRFNLGVYYSMYSPSVGFHEVVSISSLKLKDTVYLEEVEISLQVKICKTFNILTYKG,soluble
7,MCVGVPMTVVTSDNGTALCERRGEQRRVSTLLIGEVAVGDRVLVFIDNAMRLLEPDEARLIDDALDGLAAAMQGRDFEHLFADLIDREPQLPAFLRNDVVPPHG,not soluble
8,MIETKRQQERVILLGVELQTTEHFDMSMTELANLAKTAGVKVMASFSQKRERYDSKTFIGSGKLDEIKAIVEADEIDAVIVNNRLTARQNANLEAVLEVKVIDRMQLILDIFAMRARSHEGKLQVHLAQLKYMLPRLVGQGIMLSRQAGGIGSRGPGESQLELNRRSIRHQIADIERQLTQVEKNRQTIRDRRVGSDTFKIGLIGYTNAGKSTIMNLLTDDSHYEANELFATLDATTKQLYLENQFQATLTDTVGFIQDLPTELVAAFKSTLEESKYVDLLLHVIDASDPNHSEQEKVVLNLLKELDMLNIPRLAIYNKVDIAEQFTATAFPNIRISARSKDSKILLRRLIIDQIRDQFVPFRIKVHQDKAYKLYDLNRVALLDHYTFDQEIEDISGYISPKQQWRLDDFYELEHHHHHH,soluble
9,MSNKGGGQRSGEIGVDELWTVYKSFIRETGLARQHLDSFNRLVTQEIQKIIDSIREVRPQWRIYAGRRRYRRGRFEEHEIHLPDVKIVFGKARFKEPMAREVIESFDRRVTPFECRVRGITYSAPLMVEMTIVQDNMIEKTREVKIADFPVMVKSVLDPLSKYDEETVIEMGEDPGDPGGYFIINGSEKVIVAQEDLAVNRIIVNKSTAATARITHTAKAVSTVLGLRRQAIVDRMSDGTLEASLSRLRYRIPLVVLLRALGLEKDMEIMLAVSADPDVQREMLPSLEKGRALAPTKEDALKYLGNRIAPGQPLDVRIRRAEEFLDTQLLPHLGNRPEDRIKKAYFLAEMANRVLQLYLGKRGEDDKDFLGNKRLRLAGDLIAELFRESLEALANTMAQKLEEQLAERRQIRLDFLVRPTIISDRLKGAIATGNWGQDRTGISQQLDRTNWISLLSHLRRVISPLSRGQAHFEARDLHGSHWGRYCPFETPEGINCGLVKNLALSAYISVGVDESVVEEILVKDLGVAPLERILEEAKQAGEPPEIMLKGTKVFINGRPLGYHPNGAELARKIRELRRSDKLEVERPWEVSVYHLREGEIDELYVNTDSGRLMRPVVVVENGEPKLTREHVEKLSRGEITFWDLVKQGVVEMLDPEEEQNALIAELPWEVTKEHTHMELWVPAIVGVAAATIGYLEHNQSPRNTYQAAMAKQALGVYALNYRIRLDSHSYLLQYPQVPIVQTRMLDIMGYNERPAGQNMVVAIMSYTGYNIEDALIFNKGSIDMGLARAYFFRVYTGIENEYPGGERDRITLPKPDEVYDYRGAAAYAKLEADGIVAPETEVEGGEILIGRVSPPRFLGEGRVISMATVRRRDTSIPMRLGEKGVVDMVVISTTVERNKLVKVRVRNLRIPEIGDKFASRHGQKGVIGMIFPRYDMPYTEEGIEPDVILNPHAIPSRMTVGQLLEEIAGKLGAIKGRFVDATPFFKEDIDGLRIELLKEGYDPNAREVMYDGRTGQIIEAPITIGVAYYQRLYHMVADKIHARATGRVHLLTRQPTEGKARQGGLRFGEMERDCLVGHGASMLLRDRMLDNSDAYVMYVCNTCGNIAWFNRRKKVLECPIHGEEGDIRPVKVPYAFKLLLQEITSMMIKPELKVADKISVIRKVVGDYT,soluble
10,HMNAEINPLHAYFKLPNTVSLVAGSSEGETPLNAFDGALLNAGIGNVALIRISSIMPPEAEIVPLPKLPMGALVPTAYGYIISDVPGETISAAISVAIPKDKSLCGLIMEYEGKCSKKEAEKTVREMAKIGFEMRGWELDRIESIAVEHTVEKLGCAFAAAALWYK,soluble
11,MAAKVEPFWKRKTLAQLDQDEWESLCDGCGLCCLQKLEDEDDGSVYYTRIACKLLDLQSCRCTNYAERIRFVPDCIQLTPAQADEFQWLPPTCGYRLVAEGKDLPLWHHLVCGDPERVHKERISQSGRMLSETQVAEDDWEDYLIFRAG,not soluble
12,MAHRKTTTKNGNGGTLGFEAELFKAADKLRGNMEPSDYKHVALGLIFLKYISDAFEAKHSALLAEDAQAAEDKDEYLAHNVFWVPKQARWSHLKANAKQSTIGTLIDEAMRDIEKDNPSLKHVLPKDYARPALNKVMLGELIDLISGIALNEEGARSKDILGRVYEYFLGQFAGAEGKRGGEFYTPRSVVRVLVQMLEPYSGRVYDPCCGSGGMFVQSEKFVLEHGGRIGDIAIYGQESNYTTWRLAKMNLAVRGIDSDIRWNNEGSFHNDALRDLKADYILANPPFNISDWGGDRLREDVRWKFGVPPAGNANYAWLQHIYHHLAPNGTAGVVLANGSMSSNHSGEGEIRTHMIEADIVDCMIAMPGQLFYSTQIPACLWFLARNKNPGKGLRDRRGQVLLMDARALGVLVDRTRRELTDEHIQQIADTYHAWRGEQGAAAYADVAGFCKSATLEDIRKQGYVLTPGRYVGAVEREDDGEPFPQKMQRLSAQWRAQRAAAAKLDAAIAANLKELGYGG,soluble
13,MAHHHHHHMSKSIAVIAAGAPAALVQAASAMVSKATGGAVKAMQATSAASNAIVVGMQAPRGVYACVAEPPSTASGPYAGVKTVVVRAILPRRAPDTMQVRDILDVYPASGITCEQETAEAVESFSKAAKVAVEKAKAMKATRVTLVMKPATKYERLNSLFRETCTKTIEAAGLSVETATTAAATNTLIMFPEKMSVVMVSDDPVCENVQYAFAGVVGGAHTTYYTDAGSTIHGGHSYKSVAMALAEELKSLGMKAEAAKVEAAAQKSPRNAAAAM,not soluble
14,MTNPGDGAAGAADRATLDHWRPRLAAIAAAAGQDDAAHDLGHLRRVWDAARAMLQAHPEADALVVLAASYLHDLVNLPKNHPERHLASRQAAAAARERLARAGFPAARLDAVAHAIEAHSFSAGIAPRTIEARIVQDADRLDALGPVGLVRMFHVGGSLGRALAHPSDPLAAQRALDDSRYTLDHIEAKLARLPHGMQTEAGRRLGEQRLAWLRDFRAAFSAQWGGGQLRLEHHHHHH,not soluble
15,DTVIAMDAYTPHDVTTQAQQLIDATPTAPALAPMTWPTPRVAARVRTQRDQRGRAPKPPRARGIDTIQHGRDDIDLRAISQLACTSQTQAIARIIATLEKRVDDHTPMITLVNDVLAEIETHGWAALSGQRAGSHAERHPGRVAMPRPQEVMAALNRYRGLSLVGSLDA,not soluble
16,MTYDYVIVGGGIVGVSTGWQLKRRYPEKSVLLIEKEAGFSRHQTGHNSGVIHAGVYYAPGSLKADFCKRGVERTLAFCAQHNIPVENCGKLLVATNEQELERMHALYDRCLQNQIDVEKLDAAQLKLAEPNIRGLGAILVKATSIVNYRLVTEKMAEAFMQLGGDVKIGTEVVGLEETPSSITLTCQQKNQRVSYQAKFLVTCSGLMADRLTKMLGLPTDFQIIPYRGEYYRLAPKHNQVVRHLIYPIPDPELPFLGVHLTRMIDGCVTVGPNAVQGFKREGYGKWNVSLRDVWEMVCFPGFWKVSAKHFKTGMVEMKNSWWKAGYLQLVRKYCPSIELTDLEPYPAGIRAQAVLSDGTLVHDFLFAESPRSLHVCNAPSPAATSAMPIGEYLCDKIAEKSLALEHHHHHH,soluble
17,FWMELQAVDSYQVKASGILTGADRKIITMLYQPLMGAECLALYQTLFTEVEENRLWSEAHSHVQLLNMLDISLKALFEARLKLEGLGLLKSYVKTENDQRFYIYEILPPLSPEKFFSDGLLNIYLYSKIGNAQFQRLRRFFADETFETDTYSEITRSFQDVFEPFKGGSSAVPSESSQVLVDKIVPKEIEFDDASFDFNLFLSLLSPGMIAREKITKEVRQTILKLHGIYQVSEKDMPSYLYRALDANGEIDIVYLRKIVREGYTIENGAPPKLQMKQETPGKKEPEEALNDEEALQVYLESITPFQLLVDISDGAIPAETDLRVVEEVMNQQNLPVPVMNVLIEYVLLRLDRKLSKNYMMTIAAHWKRKNVKTAKEAMDLAWQEHEKYKRLQEEPATPKNNNYNRNYQKSTRKEILPDWFDKEQVAPAENKMTDKEKQTLEEQVREIKERLNKR,not soluble
